Experiments:
[1] = target: L-FABP bound to arachidonic acid (human) (UniProt P07148); experiment: sandwich ELISA; L-FABP stored at 37 C for two weeks in BSA-containing buffer; sample stored at 4 C = 100 (FIG. 19)
[2] = target: wild type human L-FABP protein (liver-type fatty acid-binding protein) (human) (UniProt P07148); experiment: as above
[3] = target: L-FABP bound to oleic acid (human) (UniProt P07148); experiment: sandwich ELISA; L-FABP stored at 37 C for two weeks in BSA-containing buffer; sample stored at 4 C = 100 (FIG. 20)
[4] = target: wild type human L-FABP protein (liver-type fatty acid-binding protein) (human) (UniProt P07148); experiment: as above
[5] = target: L-FABP M19L/M74L/M113L (human) (UniProt P07148); experiment: ELISA (kit not named in this example); OD ratio with and without oxidation treatment with 10 mM AAPH for 1 h at 25 C; FIG. 21
[6] = target: L-FABP WT treated with 0.5 mM AAPH (human) (UniProt P07148); experiment: as above
[7] = target: L-FABP WT treated with 4 mM AAPH (human) (UniProt P07148); experiment: as above
[8] = target: wild type human L-FABP protein (liver-type fatty acid-binding protein) (human) (UniProt P07148); experiment: as above
L-FABP M19L (human) = L-FABP M19L (human) (UniProt P07148); experiment: ELISA (kit not named in this example); OD ratio with and without oxidation treatment with 10 mM AAPH for 1 h at 25 C; FIG. 23
[9] = target: L-FABP M19L/M113L (human) (UniProt P07148); experiment: as above
[10] = target: L-FABP M19L/M74L/M113L (human) (UniProt P07148); experiment: as above
[11] = target: L-FABP WT treated with 0.5 mM AAPH (human) (UniProt P07148); experiment: as above
[12] = target: L-FABP WT treated with 4 mM AAPH (human) (UniProt P07148); experiment: as above
[13] = target: L-FABP bound to arachidonic acid (human) (UniProt P07148); experiment: as above
[14] = target: L-FABP bound to oleic acid (human) (UniProt P07148); experiment: as above
[15] = target: wild type human L-FABP protein (liver-type fatty acid-binding protein) (human) (UniProt P07148); experiment: as above
[16] = target: L-FABP that had been oxidation-treated with 40 mM AAPH (human) (UniProt P07148); experiment: sandwich ELISA (RENAPRO L-FABP Test TMB); L-FABP stored at 37 C, measured every week for two weeks; sample stored at 4 C = 100
[17] = target: wild type human L-FABP protein (liver-type fatty acid-binding protein) (human) (UniProt P07148); experiment: as above
[18] = target: L-FABP M19L/M74L/M113L (human) (UniProt P07148); experiment: sandwich ELISA (RENAPRO L-FABP test TMB); L-FABP reacted with 0 to 5 mM AAPH for 1 h at room temperature with BSA; untreated sample = 100
[19] = target: wild type human L-FABP protein (liver-type fatty acid-binding protein) (human) (UniProt P07148); experiment: as above
[20] = target: L-FABP M19L/M74L/M113L (human) (UniProt P07148); experiment: sandwich ELISA (RENAPRO L-FABP Test TMB); L-FABP stored at 25 C with BSA, measured every week for four weeks; sample stored at -80 C = 100
[21] = target: wild type human L-FABP protein (liver-type fatty acid-binding protein) (human) (UniProt P07148); experiment: as above
[22] = target: L-FABP M19L/M74L/M113L (human) (UniProt P07148); experiment: sandwich ELISA (RENAPRO L-FABP Test TMB); L-FABP stored at 37 C with BSA, measured every week for four weeks; sample stored at -80 C = 100
[23] = target: wild type human L-FABP protein (liver-type fatty acid-binding protein) (human) (UniProt P07148); experiment: as above
[24] = target: L-FABP M19L/M74L/M113L (human) (UniProt P07148); experiment: sandwich ELISA (RENAPRO L-FABP Test TMB) with 1 mass % BSA; oleic acid added to L-FABP at various concentrations, 1.5 h room temperature; untreated sample = 100
[25] = target: wild type human L-FABP protein (liver-type fatty acid-binding protein) (human) (UniProt P07148); experiment: as above
[26] = target: L-FABP M19L/M74L/M113L (human) (UniProt P07148); experiment: sandwich ELISA (RENAPRO L-FABP Test TMB) with 1 mass % BSA; arachidonic acid added to L-FABP at various concentrations, 1.5 h room temperature; untreated sample = 100
[27] = target: wild type human L-FABP protein (liver-type fatty acid-binding protein) (human) (UniProt P07148); experiment: as above
[28] = target: L-FABP M19L/M74L/M113L (human) (UniProt P07148); experiment: sandwich ELISA (RENAPRO L-FABP Test TMB) with 1 mass % BSA; 8-iso-prostaglandin F2α added to L-FABP at various concentrations, 1.5 h room temperature; untreated sample = 100
[29] = target: wild type human L-FABP protein (liver-type fatty acid-binding protein) (human) (UniProt P07148); experiment: as above

An ELISA measured value, % of sample stored at 4 C [1] of 99.9 to 100%, an ELISA measured value, % of sample stored at 4 C [2] of 118 to 132% and an ELISA measured value, % of sample stored at 4 C [3] of 100 to 110% were found for “labeled antibody of the sandwich ELISA kit RENAPRO L-FABP Test TMB (CMIC HOLDINGS Co., Ltd.)” in this work. It also gave an ELISA measured value, % of sample stored at 4 C [4] of 120 to 130%, a coefficient of change in oxidation (OD ratio, oxidation-treated / not treated) [5] of under 1.3 and a coefficient of change in oxidation (OD ratio, oxidation-treated / not treated) [6] of under 1.3. It also gave a coefficient of change in oxidation (OD ratio, oxidation-treated / not treated) [7] of under 1.3, a coefficient of change in oxidation (OD ratio, oxidation-treated / not treated) [8] of 1.8 and a coefficient of change in oxidation (OD ratio, oxidation-treated / not treated) (L-FABP M19L (human)) of under 1.4. For the same substance, the coefficient of change in oxidation (OD ratio, oxidation-treated / not treated) [9] was under 1.4, the coefficient of change in oxidation (OD ratio, oxidation-treated / not treated) [10] was under 1.4 and the coefficient of change in oxidation (OD ratio, oxidation-treated / not treated) [11] was under 1.4. For the same substance, the coefficient of change in oxidation (OD ratio, oxidation-treated / not treated) [12] was under 1.4, the coefficient of change in oxidation (OD ratio, oxidation-treated / not treated) [13] was under 1.4 and the coefficient of change in oxidation (OD ratio, oxidation-treated / not treated) [14] was under 1.4. It also gave a coefficient of change in oxidation (OD ratio, oxidation-treated / not treated) [15] of 1.8, an ELISA measured value (OD 450 nm), % of sample stored at 4 C [16] of 94 to 102% and an ELISA measured value (OD 450 nm), % of sample stored at 4 C [17] of 114 to 130%. The ELISA measured value (OD 450 nm), % of untreated sample [18] was 102 to 107%, the ELISA measured value (OD 450 nm), % of untreated sample [19] was 112 to 121% and the ELISA measured value (OD 450 nm), % of sample stored at -80 C [20] was 101 to 111%. The ELISA measured value (OD 450 nm), % of sample stored at -80 C [21] was 110 to 128%, the ELISA measured value (OD 450 nm), % of sample stored at -80 C [22] was 104 to 113% and the ELISA measured value (OD 450 nm), % of sample stored at -80 C [23] was 117 to 143%. The ELISA measured value (OD 450 nm), % of untreated sample [24] was 92 to 107%, the ELISA measured value (OD 450 nm), % of untreated sample [25] was 100 to 124% and the ELISA measured value (OD 450 nm), % of untreated sample [26] was 88 to 103%. For the same substance, the ELISA measured value (OD 450 nm), % of untreated sample [27] was 104 to 220%, the ELISA measured value (OD 450 nm), % of untreated sample [28] was 96 to 101% and the ELISA measured value (OD 450 nm), % of untreated sample [29] was 95 to 118%.

Reference: patent publication US20190359663A1
